Results from patent US20110046068A1 (MEDICAL RESEARCH COUNCIL, published 2011).
Non-standard residues stand in square brackets, D forms with d. No end group written: not given here.

Tests used:
[1] = molecular target: T1, human gpr-54 receptor (human, UniProt Q969F8 1-398); test: cell-based or functional assay
[2] = molecular target: T1, human gpr-54 receptor; test: cell-based or functional assay; remark: listed apart in the source
[3] = molecular target: T1, human gpr-54 receptor; test: whole-cell competition binding against 125I-kisspeptin, CHO cells stably transfected with GPR54 (CPM); the fall of the curve lies between Total and -10 LogM [201]
Method: (§1) Cell monolayers were placed on ice and exposed to 0.5 mls peptide (10 pM-1 uM); the cells were then incubated at 4° C. for 4 hr. After 4 hrs, cells were washed twice with ice cold Dulbecco's phosphate buffered saline (DPBS; with Calcium and Magnesium) and then 0.5 mls 0.1M Sodium Hydroxide (NaOH) were added to cells for 20 minutes, shaking to lyse cells. Lysates were transferred to plastic tubes and bound radioactivity counted on the gamma counter for 60 seconds.

[4] = molecular target: T1, human gpr-54 receptor; test: cell-based or functional assay; remark: listed apart in the source
[5] = molecular target: T1, human gpr-54 receptor; test: whole-cell competition binding against 125I-kisspeptin, CHO cells stably transfected with GPR54 (CPM); the fall of the curve lies between Total and -11 LogM [206]
Method: as §1

[6] = molecular target: T1, human gpr-54 receptor; test: cell-based or functional assay; remark: listed apart in the source
[7] = molecular target: T1, human gpr-54 receptor; test: whole-cell competition binding against 125I-kisspeptin, CHO cells stably transfected with GPR54 (CPM); the fall of the curve lies between Total and -11 LogM [203]
Method: as §1

[8] = molecular target: T1, human gpr-54 receptor; test: whole-cell competition binding against 125I-kisspeptin, CHO cells stably transfected with GPR54 (CPM); the fall of the curve lies between Total and -11 LogM [202]
Method: as §1

[9] = molecular target: T1, human gpr-54 receptor; test: whole-cell competition binding against 125I-kisspeptin, CHO cells stably transfected with GPR54 (CPM); the drawn curve falls between Total and -10 LogM, which does not fit the printed number [207]
[10] = molecular target: T1, human gpr-54 receptor; test: cell-based or functional assay; remark: listed apart in the source
[11] = molecular target: T1, human gpr-54 receptor; test: whole-cell competition binding against 125I-kisspeptin, CHO cells stably transfected with human GPR54 (CPM); no lower plateau reached at -5 LogM [211]
Method: as §1

[12] = molecular target: T1, human gpr-54 receptor; test: cell-based or functional assay; remark: listed apart in the source
[13] = molecular target: T1, human gpr-54 receptor; test: whole-cell competition binding against 125I-kisspeptin, CHO cells stably transfected with GPR54 (CPM); the curve falls between Total and -9 LogM [209]
Method: as §1

[14] = molecular target: T1, human gpr-54 receptor; test: whole-cell competition binding against 125I-kisspeptin, CHO cells stably transfected with GPR54 (CPM) [208]
Method: as §1

[15] = molecular target: T1, human gpr-54 receptor; test: cell-based or functional assay; remark: listed apart in the source
[16] = molecular target: T1, human gpr-54 receptor; test: whole-cell competition binding against 125I-kisspeptin, CHO cells stably transfected with GPR54 (CPM); upper curve, no lower plateau reached at -5 LogM [212]
Method: as §1

[17] = molecular target: T1, human gpr-54 receptor; test: whole-cell competition binding against 125I-kisspeptin, CHO cells stably transfected with GPR54 (CPM) [210]
Method: as §1

[18] = molecular target: T1, human gpr-54 receptor; test: cell-based or functional assay; remark: listed apart in the source
[19] = molecular target: T1, human gpr-54 receptor; test: whole-cell competition binding against 125I-kisspeptin, CHO cells stably transfected with GPR54 (CPM); the fall of the curve lies between Total and -10 LogM [228]
Method: as §1

[20] = molecular target: T1, human gpr-54 receptor; test: cell-based or functional assay; remark: listed apart in the source
[21] = molecular target: T1, human gpr-54 receptor; test: whole-cell competition binding against 125I-kisspeptin, CHO cells stably transfected with hGPR54 (CPM); no lower plateau reached at -5 LogM [186]
Method: as §1

T1 sequence (Q969F8 whole entry): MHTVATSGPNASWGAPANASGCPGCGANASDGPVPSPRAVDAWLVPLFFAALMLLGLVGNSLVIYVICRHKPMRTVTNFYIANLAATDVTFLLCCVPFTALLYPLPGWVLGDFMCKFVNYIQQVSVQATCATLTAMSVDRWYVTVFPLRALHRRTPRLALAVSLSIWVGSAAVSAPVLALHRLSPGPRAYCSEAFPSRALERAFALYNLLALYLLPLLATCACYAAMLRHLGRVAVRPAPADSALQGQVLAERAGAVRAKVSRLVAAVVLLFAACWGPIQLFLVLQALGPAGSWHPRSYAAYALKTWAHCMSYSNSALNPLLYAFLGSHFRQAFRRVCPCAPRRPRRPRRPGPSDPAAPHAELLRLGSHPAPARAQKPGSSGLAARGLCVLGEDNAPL

Binder	Inhibition of IP stimulation by 10nM Agonist: % Inhibition of Max [1] [%]	Inhibition of IP stimulation by 10nM Agonist: IC50 [1] [nM]	IP stimulation (IC50), peptide alone [1] [nM]	further results
Ac-FGARW-NH2 (kisspeptin-10 analogue; also called acFGARW) [201]	69	7	–	IP competition with 10nM kisspeptin-10: IC50 [201] [2]: 7 nM; IC50 [3]: 0.00432 nM
Ac-FG[dW]RF-NH2 (SMILES CC(=O)N[C@@H](Cc1ccccc1)C(=O)NCC(=O)N[C@H](Cc1c[nH]c2ccccc12)C(=O)N[C@@H](CCCNC(=N)N)C(=O)N[C@@H](Cc1ccccc1)C(N)=O, kisspeptin-10 analogue; also called acFG[(D)-W]RF) [206]	68	10	–	IP competition with 10nM kisspeptin-10: IC50 [206] [4]: 10 nM; IC50 [5]: 0.0352 pM
Ac-[dF]WLRW-NH2 (SMILES CC(=O)N[C@H](Cc1ccccc1)C(=O)N[C@@H](Cc1c[nH]c2ccccc12)C(=O)N[C@@H](CC(C)C)C(=O)N[C@@H](CCCNC(=N)N)C(=O)N[C@@H](Cc1c[nH]c2ccccc12)C(N)=O, kisspeptin-10 analogue; also called ac[F-(D)]WLRW) [203]	71	0.1	150000	IP competition with 10nM kisspeptin-10: IC50 [203] [6]: 0.1 nM; IP dose response, peptide alone: EC50 (unlabelled number beside rising curve; rise only at -5 LogM) [203] [6]: 0.000156 M; IC50 [7]: 0.000307 nM
Ac-AGLRW-NH2 (kisspeptin-10 analogue; also called acAGLRW) [202]	64	10	> 100000	IP competition with 10nM kisspeptin-10: IC50 [202] [6]: 10 nM; IP dose response, peptide alone: EC50 (unlabelled number beside rising curve; rise only at -5 LogM) [202] [6]: 0.00109 M; IC50 [8]: 0.00032 nM
Ac-FG[dF]RF-NH2 (SMILES CC(=O)N[C@@H](Cc1ccccc1)C(=O)NCC(=O)N[C@H](Cc1ccccc1)C(=O)N[C@@H](CCCNC(=N)N)C(=O)N[C@@H](Cc1ccccc1)C(N)=O, kisspeptin-10 analogue; also called acFG[(D)-F]RF) [207]	0	–	–	IC50 [9]: 110 nM
YNWNG[dF]GLRF-NH2 (N-terminus assumed; SMILES CC(C)C[C@H](NC(=O)CNC(=O)[C@@H](Cc1ccccc1)NC(=O)CNC(=O)[C@H](CC(N)=O)NC(=O)[C@H](Cc1c[nH]c2ccccc12)NC(=O)[C@H](CC(N)=O)NC(=O)[C@@H](N)Cc1ccc(O)cc1)C(=O)N[C@@H](CCCNC(=N)N)C(=O)N[C@@H](Cc1ccccc1)C(N)=O, kisspeptin-10 analogue; also called YNWNG[(D)-F]GLRF) [211]	73	1000	2570	IP competition with 10nM kisspeptin-10: IC50 [211] [10]: 1000 nM; IC50 [11]: 4320 nM
YNWNGFG[dL]RF-NH2 (N-terminus assumed; SMILES CC(C)C[C@@H](NC(=O)CNC(=O)[C@H](Cc1ccccc1)NC(=O)CNC(=O)[C@H](CC(N)=O)NC(=O)[C@H](Cc1c[nH]c2ccccc12)NC(=O)[C@H](CC(N)=O)NC(=O)[C@@H](N)Cc1ccc(O)cc1)C(=O)N[C@@H](CCCNC(=N)N)C(=O)N[C@@H](Cc1ccccc1)C(N)=O, kisspeptin-10 analogue; also called Peptide 209; YNWNGFG[(D)-L]RF) [209]	81	100	–	IP competition with 10nM kisspeptin-10: IC50 [209] [12]: 100 nM; IC50 [13]: 0.0157 nM
YNWNGFGLRF-NH2 (kisspeptin-10 analogue) [208]	55	1000	45.6	Antagonistic assay with kisspeptin-10: IC50 [208] [12]: 1000 nM; IC50 [14]: 70.3 nM
YNWNG[dW]GLRF-NH2 (N-terminus assumed; SMILES CC(C)C[C@H](NC(=O)CNC(=O)[C@@H](Cc1c[nH]c2ccccc12)NC(=O)CNC(=O)[C@H](CC(N)=O)NC(=O)[C@H](Cc1c[nH]c2ccccc12)NC(=O)[C@H](CC(N)=O)NC(=O)[C@@H](N)Cc1ccc(O)cc1)C(=O)N[C@@H](CCCNC(=N)N)C(=O)N[C@@H](Cc1ccccc1)C(N)=O, kisspeptin-10 analogue; also called YNWNG[(D)-W]GLRF) [212]	88	< 0.1	300000	IP competition with 10nM kisspeptin-10: IC50 [212] [15]: < 0.1 nM; IP dose response, peptide alone: EC50 (unlabelled number beside rising curve; rise only at -5 LogM) [212] [15]: 0.000205 M; IC50 [16]: 6330 nM
YNWNGFG[dW]RF-NH2 (kisspeptin-10 analogue; also called compound 210) [210]	64	< 0.1	–	IP competition with 10nM kisspeptin-10: IC50 [210] [10]: < 0.1 nM; IC50 [17]: 1300 nM
Ac-YNWNGFG[dW]RF-NH2 (SMILES CC(=O)N[C@@H](Cc1ccc(O)cc1)C(=O)N[C@@H](CC(N)=O)C(=O)N[C@@H](Cc1c[nH]c2ccccc12)C(=O)N[C@@H](CC(N)=O)C(=O)NCC(=O)N[C@@H](Cc1ccccc1)C(=O)NCC(=O)N[C@H](Cc1c[nH]c2ccccc12)C(=O)N[C@@H](CCCNC(=N)N)C(=O)N[C@@H](Cc1ccccc1)C(N)=O, kisspeptin-10 analogue; also called acYNWNGFG[(D)-W]RF) [228]	58	50	–	IP competition with 10nM kisspeptin-10: IC50 [228] [18]: 50 nM; IC50 [19]: 0.00655 nM
Ac-NSFGLRF-NH2 (kisspeptin-10 analogue; also called Peptide 186; acNSFGLRF) [186]	70	–	150	IP competition with 10nM kisspeptin-10: IC50 [186] [20]: 0.5 nM; IP dose response, peptide alone: EC50 (unlabelled number beside rising curve) [186] [20]: 592 nM; IC50 [21]: 1850 nM
